# In paper PMC9668162:
# Biological target: PAM1.4 Fab (human) (UniProt P01834)
# Test: ELISA
substance,measurement,value
"recombinant full-length VAR2CSA (variant FCR3), full ectodomain (domain or fragment)",Kd,0.012 µM
